Two variants from IntAct's records for PubMed 14681217 can be followed below.

First the molecules themselves.
B1: Integrin beta-7 (Homo sapiens), P26010 (parent)
chain: MVALPMVLVLLLVLSRGESELDAKIPSTGDATEWRNPHLSMLGSCQPAPSCQKCILSHPSCAWCKQLNFTASGEAEARRCARREELLARGCPLEELEEPRGQQEVLQDQPLSQGARGEGATQLAPQRVRVTLRPGEPQQLQVRFLRAEGYPVDLYYLMDLSYSMKDDLERVRQLGHALLVRLQEVTHSVRIGFGSFVDKTVLPFVSTVPSKLRHPCPTRLERCQSPFSFHHVLSLTGDAQAFEREVGRQSVSGNLDSPEGGFDAILQAALCQEQIGWRNVSRLLVFTSDDTFHTAGDGKLGGIFMPSDGHCHLDSNGLYSRSTEFDYPSVGQVAQALSAANIQPIFAVTSAALPVYQELSKLIPKSAVGELSEDSSNVVQLIMDAYNSLSSTVTLEHSSLPPGVHISYESQCEGPEKREGKAEDRGQCNHVRINQTVTFWVSLQATHCLPEPHLLRLRALGFSEELIVELHTLCDCNCSDTQPQAPHCSDGQGHLQCGVCSCAPGRLGRLCECSVAELSSPDLESGCRAPNGTGPLCSGKGHCQCGRCSCSGQSSGHLCECDDASCERHEGILCGGFGRCQCGVCHCHANRTGRACECSGDMDSCISPEGGLCSGHGRCKCNRCQCLDGYYGALCDQCPGCKTPCERHRDCAECGAFRTGPLATNCSTACAHTNVTLALAPILDDGWCKERTLDNQLFFFLVEDDARGTVVLRVRPQEKGADHTQAIVLGCVGGIVAVGLGLVLAYRLSVEIYDRREYSRFEKEQQQLNWKQDSNPLYKSAITTTINPRFQEADSPTL

This assay covers variants of B1. The conditions noted are these: with ita4_human ITGA4, P13612.
Sequence of ita4_human ITGA4, P13612 (P13612 whole entry): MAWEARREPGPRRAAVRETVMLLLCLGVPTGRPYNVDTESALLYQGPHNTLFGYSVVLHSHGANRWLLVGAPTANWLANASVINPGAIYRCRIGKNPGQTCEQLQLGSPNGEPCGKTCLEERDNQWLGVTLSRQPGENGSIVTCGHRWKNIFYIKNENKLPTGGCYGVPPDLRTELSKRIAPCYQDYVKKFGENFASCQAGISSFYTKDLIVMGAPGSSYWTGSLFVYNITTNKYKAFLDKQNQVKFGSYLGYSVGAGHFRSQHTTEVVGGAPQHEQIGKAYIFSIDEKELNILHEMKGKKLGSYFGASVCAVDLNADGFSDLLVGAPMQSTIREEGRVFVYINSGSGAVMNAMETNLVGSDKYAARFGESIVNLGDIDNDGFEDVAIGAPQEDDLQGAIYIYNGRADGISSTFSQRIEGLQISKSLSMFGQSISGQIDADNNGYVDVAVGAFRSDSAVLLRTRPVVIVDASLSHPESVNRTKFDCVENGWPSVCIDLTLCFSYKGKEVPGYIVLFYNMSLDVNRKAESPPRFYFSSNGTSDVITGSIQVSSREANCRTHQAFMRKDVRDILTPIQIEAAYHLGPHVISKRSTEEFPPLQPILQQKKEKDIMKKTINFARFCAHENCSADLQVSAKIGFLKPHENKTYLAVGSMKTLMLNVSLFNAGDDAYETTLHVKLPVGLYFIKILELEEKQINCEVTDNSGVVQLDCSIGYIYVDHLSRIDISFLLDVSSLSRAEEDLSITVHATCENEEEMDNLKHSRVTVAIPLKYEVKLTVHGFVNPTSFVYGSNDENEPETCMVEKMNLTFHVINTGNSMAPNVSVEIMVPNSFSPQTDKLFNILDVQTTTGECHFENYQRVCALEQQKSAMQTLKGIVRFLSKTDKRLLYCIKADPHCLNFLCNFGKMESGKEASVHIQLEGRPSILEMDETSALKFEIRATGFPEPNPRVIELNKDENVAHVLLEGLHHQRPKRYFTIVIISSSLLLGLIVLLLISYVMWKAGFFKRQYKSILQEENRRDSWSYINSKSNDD
With G734I, the “effect of a mutation on the interaction” value is given as “decreasing interaction”. On to G730I, for which the “effect of a mutation on the interaction” value was “decreasing interaction”.
